Experimental data published in patent publication US20220213151A1.
pKd: −log10 of the molar value. Read-outs that look alike come from different tables or passages of the source.

What was measured:
[1] = biological target: rhu EGFR (Fc) (human (rhu)) (UniProt P00533); assay: pH 6
[2] = biological target: rhu EGFR (Fc) (human (rhu)) (UniProt P00533)

Substance: A-dmDT390-EGF (other; other documents disagree on this pair)
- pKd [1]: 6.99
- pKd [2]: 8.24
